Reference: article PMC7673785

Molecular target: RIPK3 (UniProt Q9Y572)
Assay: anti-Flag co-IP, Myc blot
Conditions: reference: wild-type Myc-CSNK1G2; sites S211,T215

CSNK1G2 (from UniProt P78368) S211A/T215A
binding against the reference: lost
